Laboratory results published in US20090017041A1.

Experiments:
[1] = molecular target: oligomer-enriched preparation of the Aβ1-42 peptide (Example 16); experiment: ELISA, fraction coated at 2.2 µM; antibody dilution 1:64 (start 0.5 µg/ml)
[2] = molecular target: monomer-enriched preparation of the Aβ1-42 peptide (Example 16); experiment: as above
[3] = molecular target: oligomer-enriched preparation of the Aβ1-42 peptide (Example 16); experiment: ELISA, fraction coated at 2.2 µM; assay 2; antibody dilution 1:16 (start 0.5 µg/ml)
[4] = molecular target: monomer-enriched preparation of the Aβ1-42 peptide (Example 16); experiment: as above
[5] = molecular target: low molecular weight (LMW) monomeric preparation of the Aβ1-42 peptide (Example 15) (human); experiment: ELISA, fraction coated at 2 µM; antibody 0.25 µg/ml
Chain of low molecular weight (LMW) monomeric preparation of the Aβ1-42 peptide (Example 15) (human) (peptide, as listed by the source): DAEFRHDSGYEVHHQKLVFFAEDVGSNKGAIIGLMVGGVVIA

[6] = molecular target: high molecular weight (HMW) proto-fibrillar (PF) oligomer enriched preparation of the Aβ1-42 peptide (Example 15) (human); experiment: as above
Chain of high molecular weight (HMW) proto-fibrillar (PF) oligomer enriched preparation of the Aβ1-42 peptide (Example 15) (human) (peptide, as listed by the source): as above

[7] = molecular target: oligomer-enriched preparation of the Aβ1-42 peptide (Example 16); experiment: ELISA, fraction coated at 2.2 µM; assay 3; antibody dilution 1:32 (start 0.5 µg/ml)
[8] = molecular target: monomer-enriched preparation of the Aβ1-42 peptide (Example 16); experiment: as above
[9] = molecular target: oligomer-enriched preparation of the Aβ1-42 peptide (Example 16); experiment: ELISA, fraction coated at 2.2 µM; assay 2; antibody dilution 1:128 (start 0.5 µg/ml)
[10] = molecular target: monomer-enriched preparation of the Aβ1-42 peptide (Example 16); experiment: as above

Chain of oligomer-enriched preparation of the Aβ1-42 peptide (Example 16) (peptide, as listed by the source): as above
Chain of monomer-enriched preparation of the Aβ1-42 peptide (Example 16) (peptide, as listed by the source): as above

Substance: 6E10 control antibody
- O.D. (405 nm), mean of 3 assays [1]: 0.92 O.D.
- O.D. (405 nm), mean of 3 assays [2]: 0.94 O.D.
- O.D. (405 nm) [3]: 1.92 O.D.
- O.D. (405 nm) [4]: 1.94 O.D.
- O.D. (405 nm) [5]: 1.56 O.D.
- O.D. (405 nm) [6]: 1.44 O.D.
- O.D. (405 nm) [7]: 1.4 O.D.
- O.D. (405 nm) [8]: 1.54 O.D.
- O.D. (405 nm) [9]: 0.61 O.D.
- O.D. (405 nm) [10]: 0.75 O.D.
